Target: nsp12 (RdRp catalytic subunit);nsp7;nsp8 (SARS-CoV-2;SARS-CoV-2;SARS-CoV-2, UniProt P0DTD1;P0DTD1;P0DTD1 4393-5324;3860-3942;3943-4140, ||)
Experiment: fluorescence polarization; higher affinity than T20P14-R
Settings: protein: recombinant;recombinant;recombinant; tags: His6-Smt3 removed by Ulp1;His6-Smt3 removed by Ulp1;His6-Smt3 removed by Ulp1; copies: 1;1;2; label: 5'-FAM (FP); hairpin, UUCG loop, 5' overhang 5 nt

## GGGAAUGGGAUUUUAAUAGCUUCGGCUAUUAAAAUCCCA (structured_RNA) [T20P14-A]
  binding result: binds

From PMC12519199, “Molecular basis of SARS-CoV-2 proofreading enzyme–mediated resistance to remdesivir”
